# Target: A/California/04/2009 (H1CA0409) recombinant HA (influenza A virus A/California/04/2009, UniProt P26140 18-529)
# Assay: phage display panning (immunotube) against trimeric HA
row,Binder,binding result
1,2E12 (scFv) scFv: QVQLVQSGAEVKKPGSSVKVSCKASGVTFSSYAISWVRQAPGQGLEWMGGISPMFGTANYAQKFQGRVTITADESTNTAYMELSSLRSEDTAVYYCARGGGYYPAGVGRYDVWGQGTLVTVSSGGGSGGGSGGGSGGGSDIVMTQSPDSLAVSLGERATINCKSSQNVLYSSNNKNNLAWYQQRPGQPPKVLLYWASTRASGVPDRFSGSGSGTDFTLTINSLQAEDVALYYCQQYYGKPFTFGPGTKVEIK,binds
2,2F1 (scFv) scFv: QVQLVQSGAEVKKPGSSVKVSCKASGGTFSSYAISWVRQAPGQGLEWMGGITPLFGTANYAQKFQGRVTITADDSTSTAYMELSSLRSEDTAVYYCARGPTLYSPPVFDVWGQGTLVTVSSGGGSGGGSGGGSGGGSQTVVTQEPSFSVSPGGTITLTCGLSSGSVSTTNYPSWYQQTPGRTPRTLIYNTNTRSSGVPDRFSGSILGNKAALTITGAQAGDESDYYCVLYMGRGIYVFGSGTKVSVL,binds
3,2E11 (scFv) scFv: QVQLVQSGAEVKKPGSSVKVSCKASGGTFSSYAISWVRQAPGQGLEWMGGINPIFGTANYAQKFQGRVTITADESTNTAYMELSSLRSEDTAVYYCARGESAYYSRNYDVWGQGTLVTVSSGGGSGGGSGGGSGGGSSYELTQPPSVSKGLRQTATLTCTGNSSNVGNQGASWLQQHQGHPPKLLSYRNDNRPSGISERFSASRSGNTASLTITGLQPEDEADYYCSAWDNSLSAWVFGGGTKLTVL,binds
4,2B6 (scFv) scFv: QVQLVQSGAEVKKPGSSVKVSCKASGGPFSSYAISWVRQAPGQGLEWMGGISPIFGTANYAQKFQGRVTITADKSTNTAYMELSSLRSEDTAVYYCARGRSYIVSVSPGFDVWGQGTLVTVSSGGGSGGGSGGGSGGGSQSVLTQPPSASGSPGQSVTISCTGTSSDVGGYNYVSWYQQYPGKAPKLMIYEVSKRPSGVPDRFSGSKSGTSASLAISELQSEDEADYYCASWDDSLNAYVFGSGTKVTVL,binds
5,9H3 (scFv) scFv: QVQLVQSGAEVKKPGSSVKVSCKASGGIFSSYAISWVRQAPGQGLEWMGGISPIFGTANYAQKFQGRVTITADESTNTAYMELSSLRSEDTAVYYCARSGGYYDYGVGYDQWGQGTLVTVSSGGGSGGGSGGGSGGGSQPVLTQPPSASGTPGQRVTISCSGGRSNIGSNTVNWYQQLPGTAPKLLIYSNNHRPSGVPDRFSGSKSGNTASLTISGLQAEDEADYYCQSYDSSVVFGGGTKLTVL,binds
6,4F5 (scFv) scFv: QVQLVQSGAEVKKPGSSVKVSCKASGVTFRSYAISWVRQAPGQGLEWMGGISGIFGTANYAQKFQGRVTITADESTSTAYMELSSLRSEDTAVYYCARSPAYYFGPNMDVWGQGTLVTVSSGGGSGGGSGGGSGGGSQSVLTQPPSVSGAPGQRVTISCTGSSSNIGAGYDVHWYQQLPGTVPKLIIYDNSNRPSGVPARFSGSKSGTSASLAISGLQSEDEAAYYCQSYDSSLSVVVFGGGTKLSVL,binds
7,5A8 (scFv) scFv: QVQLVQSGAEVKKPGSSVKVSCKASGGTFSSYAISWVRQAPGQGLEWMGGISPIFGTANYAQKFQGRVTITADESTSTVYMELSSLRSEDTAVYYCARGPGYHPAGASGQFFDLWGQGTLVTVSSGGGSGGGSGGGSGGGSSYELTQPPSVSKDLRQTATLTCTGNSNNVGNQGAAWLQQHQGHPPKLLSYRNNHRPSGISDRSSASRSGDTASLTITGLQPEDEADYYCSAWDSSLSAWVFGGGTKLTVL,binds
8,5B9 (scFv) scFv: QVQLVQSGAEVKKPGSSVKVSCKASGVTFSSYAISWVRQAPGQGLEWMGGISPMFGTANYAQKFQGRVTITADESTNTAYMELSSLRSEDTAVYYCARGRGYAPDALTNFDVWGQGTLVTVSSGGGSGGGSGGGSGGGSEIVLTQSPDSLAMSLGERATVNCKSSRSLFDSSDNKNYLAWYQKKPGQPPQLLIYWASTRQSGVPDRFSGSGSGTDFTLTISSLQAEDVAVYYCQQYFSSPPIFTFGPGTKVEIK,binds
9,2A11 (scFv) scFv: QVQLVQSGAEVKKPGSSVKVSCKASGVTFSSYAISWVRQAPGQGLEWMGGISPVFGTANYAQKFQGRVTITADDSTNTAYMELSSLRSEDTAVYYCARSRGYTVSSLAGRYFDQWGQGTLVTVSSGGGSGGGSGGGSGGGSETTLTQSPGTLSLSPGERASLSCKASESLCSTCLAWYQQKPGQAPRLIVYGATSRATGIPDRFSGSGSGTDFTLTISRLEPEDFAVYYCQQYGSSPQTFGQGTKVEIK,binds
10,4C4 (scFv) scFv: QVQLVQSGAEVKKPGSSVKVSCKASGGTFSSYAISWVRQAPGQGLEWMGGISPMFGTANYAQKFQGRVTITADKSTSTAYMELSSLRSEDTAVYYCAREGGYSPGGVDFDYWGQGTLVTVSSGGGSGGGSGGGSGGGSNFMLTQPHSVSESPGKTVTISCTRSSGSIASTYVQWYRQRPGSAPTTVIYEDHQRPSGVPDRFSGSLDSSSNSASLTISGLRTEDAATYYCQSFDASTLVFGGGTKLTVL,binds
11,6F3 (scFv) scFv: QVQLVQSGAEVKKPGSSVKVSCKASGGPFSSYAISWVRQAPGQGLEWMGGISPMFGTANYAQKFQGRVTITADESTSTVYMELSSLRSEDTAVYYCARGYSYYPGGGGGRNFDYWGQGTLVTVSSGGGSGGGSGGGSGGGSLPVLTQPPSASGTPGQRVTISCSGSSSNIGSNTVNWYQQLPGTAPKLLIYSNNQRPSGVPDRFSGSKSGTSASLAISGLQSEGEADYYCAAWDDSLKGRVFGGGTKVTVL,binds
12,2G3 (scFv) scFv: QVQLVQSGAEVKKPGSSVKVSCKASGGTFRSYAISWVRQAPGQGLEWMGGIMPIFGTANYAQKFQGRVTITADESTTTVYMELSSLRSEDTAVYYCARGAGVSAGPSWPFDVWGQGTLVTVSSGGGSGGGSGGGSGGGSQPGLTQPPSVSKDLRQTATLTCTGNSNNVGKQGATWLQQHQGHPPKLLSYRNNNRPSGISERFSASRSGDTASLTITGLQPEDEADYYCSAWDSSLSVWVFGGGTKLTVL,binds
13,2H3 (scFv) scFv: QVQLVQSGAEVKKPGSSVKVSCKASGGPFSSYAISWVRQAPGQGLEWMGGIIPIFGTANYAQKFQGRVTITADESTSTAYMELSSLRSEDTAVYYCARGTDYSGYRGFDVWGQGTLVTVSSGGGSGGGSGGGSGGGSQTVVTQEPSFSVSPGGTVTLTCALSSGSVSSFNYASWYQQTPGQAPRTLISNTNTRSSGVPDRFSGSILGNKATLTITGAQADDESHYYCALYVGGGISVFGGGTKLTVL,binds
14,2A1 (scFv) scFv: QVQLVQSGAEVKKPGSSVKVSCKASGVIFSSYAISWVRQAPGQGLEWMGGIIPIFGTANYAQKFQGRVTITADKSTSTAYMELSSLRSEDTAVYYCARGGSGSFDVWGQGTLVTVSSGGGSGGGSGGGSGGGSQPGLTQPPSASGTPGQRVTISCSGSSSNLGSNYVFWYQHLPGAAPKLLIYRNSQRPSGVPDRFSGSKSGTSASLAISGLQSEDEADYYCAAWDDSLNGVVFGGGTKLTVL,binds
15,2C1 (scFv) scFv: QVQLVQSGAEVKKPGSSVKVSCKASGGIFSSYAISWVRQAPGQGLEWMGGISAIFGTANYAQKFQGRVTITADESTSTAYMELSSLRSEDTAVYYCARDSGIASGYTAYMDYWGQGTLVTVSSGGGSGGGSGGGSGGGSSSELTQDPAVSVALGQTVRITCQGDSLRTSYASWYQQKPGQSPVLVIYQSTKRPSGIPERFSASSSGNTASLTITGAQAEDEADYYCNSRGSGGNPYVFGTGTKVTVL,binds
16,2H4 (anti-H1CA0409) (scFv) scFv: QVQLVQSGAEVKKPGSSVKVSCKASGVTFSSYAISWVRQAPGQGLEWMGGITPIFGTANYAQKFQGRVTITADQSTSTAYMELSSLRSEDTAVYYCARGGGVFDVWGQGTLVTVSSGGGSGGGSGGGSGGGSSYELTQPPSVSGAPRQRVTISCSGSSSNIGNNAVNWYQQLPGKAPKLLIYYDDMLPSGVSDRFSGSKSGSSASLAISGLQSEDEADYYCAAWDDSLSGPVFGGGTNLTVL,binds
